Results on one molecule are retold here after patent US20220135679A1 (GREEN CROSS, published 2022).

The experiment addresses T1, recombinant human GPNMB (human, UniProt Q14956 23-498).
T1 construct: also called GPNMB purified from HEK293 cells; GPNMB antigen
T1 sequence: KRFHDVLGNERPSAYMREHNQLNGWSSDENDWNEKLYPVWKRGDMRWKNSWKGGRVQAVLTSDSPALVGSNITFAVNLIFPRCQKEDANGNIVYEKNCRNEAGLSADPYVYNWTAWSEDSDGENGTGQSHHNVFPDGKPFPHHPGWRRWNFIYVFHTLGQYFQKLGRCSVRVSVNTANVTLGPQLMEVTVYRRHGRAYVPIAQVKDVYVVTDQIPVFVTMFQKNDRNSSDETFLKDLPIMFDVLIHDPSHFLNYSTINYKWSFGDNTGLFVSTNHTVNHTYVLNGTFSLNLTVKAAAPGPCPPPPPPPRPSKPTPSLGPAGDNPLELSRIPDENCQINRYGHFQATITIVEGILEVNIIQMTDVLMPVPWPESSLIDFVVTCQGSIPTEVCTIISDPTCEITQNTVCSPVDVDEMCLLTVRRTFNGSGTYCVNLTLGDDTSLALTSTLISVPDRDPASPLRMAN
The experiment in a line: SPR, Biacore T-200; GPNMB amine-coupled on CM5 chip, bispecific antibody as analyte at 0.078 to 5 nM. On the procedure:
Quantitative binding capacity (affinity) of the purified bispecific antibody to recombinant human GPNMB was measured using Biacore T-200 (GE Healthcare, USA) that is a biosensor. GPNMB purified from HEK293 cells was fixed on a CM5 chip (GE Healthcare) using an amine-carboxyl reaction until 200 Rmax was obtained. Next, the GPNMB/CD3 bispecific antibody, which was serially diluted in HBS-EP buffer (10 mM HEPES, pH 7.4, 150 mM NaCl, 3 mM EDTA, 0.005% Surfactant P20), was allowed to bind thereto in a concentration range of 0.078 nM to 5 nM for 120 seconds, and flowed at a flow rate of 30 μL/min for 1800 seconds so that dissociation was achieved. Dissociation of the antibody bound to GPNMB was induced by flowing 10 mM glycine-HCl (pH 1.5) for 30 seconds at a flow rate of 30 μL/min (Table 2). The affinity was obtained as kinetic rate constants (Kₒₙ and Koff) and equilibrium dissociation constant (KD) using Biacore T-200 Evaluation Software (Table 3).

B1: GPNMB (SEQ ID NO: 35)/A15 (SEQ ID NO: 36) bispecific antibody (bispecific antibody, human IgG1, lambda, L234A L235A)
chain 1: not shown
chain 2: QAVVTQEPSLTVSPGGTVTLTCRSSTGAVTTSNYANWVQQKPGQAPRGLIGGTNKRAPWTPARFSGSLLGGKAALTLSGAQPEDEAEYYCALWYSNLWVFGGGTKLTVLGQPKANPTVTLFPPSSEELQANKATLVCLISDFYPGAVTVAWKADGSPVKAGVETTKPSKQSNNKYAASSYLSLTPEQWKSHRSYSCQVTHEGSTVEKTVAPTECSGGGSGGGSEGGGSEGGGSEGGGSEGGGSGGGSGEVQLVESGGGLVQPGGSLKLSCAASGFTFNTYAMNWVRQASGKGLEWVGRIRSKYNNYATYYADSVKDRFTISRDDSKNTAYLQMNSLKTEDTAVYYCVRHGNFGNSYVSWFAYWGQGTLVTVSSASTKGPSVFPLAPSSKSTSGGTAALGCLVKDYFPEPVTVSWNSGALTSGVHTFPAVLQSSGLYSLSSVVTVPSSSLGTQTYICNVNHKPSNTKVDKKVEPKSCDKTHTCPPCPAPEAAGGPSVFLFPPKPKDTLMISRTPEVTCVVVDVSHEDPEVKFNWYVDGVEVHNAKTKPREEQYNSTYRVVSVLTVLHQDWLNGKEYKCKVSNKALPAPIEKTISKAKGQPREPRVYTLPPCRDELTKNQVSLTCLVKGFYPSDIAVEWESNGQPENNYKTTPPVLVSDGSFTLYSKLTVDKSRWQQGNVFSCSVMHEALHNHYTQKSLSLSPG
notes: Expressed in Expi293F cells, then purified by Protein A and size exclusion; also called anti-GPNMB/anti-CD3 bispecific antibody; GPNMB/CD3 bispecific antibody
For the molecule B1, the Kd (commonly the free concentration of one partner at which half of the binding sites on the other are occupied at equilibrium, for simple one-to-one binding) came to 1.1 nM.
